Key:
DKK3-AP = biological target: T1, DKK3-AP (UniProt Q9UBP4 22-350); assay: SPR; Biacore T200; purified mLRPIV-6×His (15 μM) amine-coupled to a CM5 chip; DKK1 or DKK3 at 6.25 to 200 nM; settings: both partners purified
T1 construct: DKK3 cDNA cloned into the pAPtag-5 vector (GenHunter, QV5); also called DKK3 tagged with alkaline phosphatase (AP) and 6 × His; source: HEK293, transfected, conditioned medium; purified with Ni-NTA Agarose beads; not shown: alkaline phosphatase (AP), C-terminal, kept

DKK1-AP = biological target: T2, DKK1-AP (UniProt O94907 32-266); assay: as above; settings: both partners purified
T2 construct: DKK1 cDNA cloned into the pAPtag-5 vector (GenHunter, QV5); also called DKK1 tagged with alkaline phosphatase (AP) and 6 × His; source: HEK293, transfected, conditioned medium; purified with Ni-NTA Agarose beads; not shown: alkaline phosphatase (AP), C-terminal, kept
T2 sequence (looked up): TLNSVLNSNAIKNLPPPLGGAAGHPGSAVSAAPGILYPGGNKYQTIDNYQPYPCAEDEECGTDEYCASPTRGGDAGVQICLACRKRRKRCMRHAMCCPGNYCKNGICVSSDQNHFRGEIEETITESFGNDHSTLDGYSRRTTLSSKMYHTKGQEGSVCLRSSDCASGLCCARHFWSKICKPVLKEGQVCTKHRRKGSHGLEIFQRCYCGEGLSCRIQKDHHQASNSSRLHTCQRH

T1 sequence (Q9UBP4 22-350): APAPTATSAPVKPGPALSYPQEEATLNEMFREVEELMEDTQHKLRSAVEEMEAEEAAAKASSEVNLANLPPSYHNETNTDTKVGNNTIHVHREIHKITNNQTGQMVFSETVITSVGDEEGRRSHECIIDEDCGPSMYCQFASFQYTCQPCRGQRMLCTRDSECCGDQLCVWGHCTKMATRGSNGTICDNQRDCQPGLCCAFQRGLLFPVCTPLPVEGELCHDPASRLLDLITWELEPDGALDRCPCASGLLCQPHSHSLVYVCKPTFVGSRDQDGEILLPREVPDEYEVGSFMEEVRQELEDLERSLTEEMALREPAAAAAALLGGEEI

B1: mLRPIV-6 × His, prokaryotically expressed (domain or fragment)
chain: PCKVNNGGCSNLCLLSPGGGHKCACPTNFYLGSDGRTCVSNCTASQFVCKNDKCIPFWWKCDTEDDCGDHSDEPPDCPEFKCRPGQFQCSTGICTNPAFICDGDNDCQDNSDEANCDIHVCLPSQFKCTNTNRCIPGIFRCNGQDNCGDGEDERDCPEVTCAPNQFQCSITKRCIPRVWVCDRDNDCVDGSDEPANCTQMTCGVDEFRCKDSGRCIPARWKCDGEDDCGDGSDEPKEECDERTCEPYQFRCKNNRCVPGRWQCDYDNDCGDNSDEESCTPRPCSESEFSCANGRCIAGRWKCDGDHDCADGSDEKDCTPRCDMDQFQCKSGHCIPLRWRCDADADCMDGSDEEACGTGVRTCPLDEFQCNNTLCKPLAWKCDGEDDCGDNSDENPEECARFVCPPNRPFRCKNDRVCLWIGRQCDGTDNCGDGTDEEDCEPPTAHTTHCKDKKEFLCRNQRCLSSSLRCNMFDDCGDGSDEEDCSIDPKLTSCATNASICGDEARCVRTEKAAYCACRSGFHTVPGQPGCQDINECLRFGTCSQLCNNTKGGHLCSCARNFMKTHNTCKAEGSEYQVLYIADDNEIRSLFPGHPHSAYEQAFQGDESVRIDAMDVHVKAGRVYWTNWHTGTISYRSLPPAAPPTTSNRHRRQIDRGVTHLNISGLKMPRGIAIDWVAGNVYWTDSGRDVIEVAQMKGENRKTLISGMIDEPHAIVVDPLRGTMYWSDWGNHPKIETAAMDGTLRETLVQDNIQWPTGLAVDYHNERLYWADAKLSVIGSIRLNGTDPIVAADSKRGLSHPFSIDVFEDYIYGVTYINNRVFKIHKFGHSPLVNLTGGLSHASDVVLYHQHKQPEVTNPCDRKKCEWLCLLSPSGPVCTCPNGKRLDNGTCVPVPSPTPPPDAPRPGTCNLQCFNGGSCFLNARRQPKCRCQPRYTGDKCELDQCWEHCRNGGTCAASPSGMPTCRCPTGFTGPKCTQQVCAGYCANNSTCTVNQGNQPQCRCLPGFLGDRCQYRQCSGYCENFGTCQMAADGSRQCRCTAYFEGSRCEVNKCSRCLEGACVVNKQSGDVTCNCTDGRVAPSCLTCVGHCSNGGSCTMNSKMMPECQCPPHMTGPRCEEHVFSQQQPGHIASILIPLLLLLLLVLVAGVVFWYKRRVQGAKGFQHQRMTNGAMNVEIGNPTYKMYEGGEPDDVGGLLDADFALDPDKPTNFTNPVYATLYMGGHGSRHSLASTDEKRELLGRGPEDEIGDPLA
Kd (DKK3-AP): 35.5 nM | Kd (DKK1-AP): 82.3 nM

— article PMC12594171, “DKK3-LRP1 complex and a chemical inhibitor regulate Aβ clearance in models of Alzheimer’s disease” (Science Advances, 2025)
